Measured values taken from article PMC12418098, “A single helicase-binding domain of DnaG couples with hexameric helicase DnaB in Bacillus stearothermophilus”.
Values joined by “and” are separate entries in the source; they are usually repeats but may differ in a detail not shown here. Equal entries are not always repeated.

Legend:
[1] = biological target: helicase DnaB hexamer from Bacillus stearothermophilus (Bacillus stearothermophilus) (UniProt Q9X4C9); assay: ITC; DnaB hexamer without ssDNA titrated by DnaG(HBD); 25°C; 25 mmol/L Tris pH 8.0, 100 mmol/L NaCl
[2] = biological target: helicase DnaB hexamer from Bacillus stearothermophilus (Bacillus stearothermophilus) (UniProt Q9X4C9); assay: ITC; DnaG(HBD) (200 μmol/L, needle) titrated into the pre-formed, gel-filtered DnaB6/dT16 complex (10 μmol/L, cell); 25°C; 25 mmol/L Tris pH 8.0, 100 mmol/L NaCl; one-set-of-sites model
[3] = biological target: T1, DnaB helicase;DnaG(HBD) (Bacillus stearothermophilus;Bacillus …, UniProt Q9X4C9;Q9X4D0 1-454;455-597, |); assay: EMSA; DnaG(HBD) 1-15 pmol added to DnaB/dT16; 5 mM MgCl2, 2 mM ATP; EMSA: 25 mM Tris pH 8.0, 100 mM NaCl, 10% glycerol, 1 mM DTT, 5 mM MgCl2, 2 mM ATP, 4 C, native PAGE (6% in Methods, 8% in legend); ITC: 25 mM Tris pH 8.0, 100; conditions: protein: recombinant;recombinant; tags: GST tag removed with PreScission (pGEX-6p-1);GST tag removed with PreScission (pGEX-6p-1); chain copies: 6;1; label: 5'-6-FAM; single strand
T1 sequence 1: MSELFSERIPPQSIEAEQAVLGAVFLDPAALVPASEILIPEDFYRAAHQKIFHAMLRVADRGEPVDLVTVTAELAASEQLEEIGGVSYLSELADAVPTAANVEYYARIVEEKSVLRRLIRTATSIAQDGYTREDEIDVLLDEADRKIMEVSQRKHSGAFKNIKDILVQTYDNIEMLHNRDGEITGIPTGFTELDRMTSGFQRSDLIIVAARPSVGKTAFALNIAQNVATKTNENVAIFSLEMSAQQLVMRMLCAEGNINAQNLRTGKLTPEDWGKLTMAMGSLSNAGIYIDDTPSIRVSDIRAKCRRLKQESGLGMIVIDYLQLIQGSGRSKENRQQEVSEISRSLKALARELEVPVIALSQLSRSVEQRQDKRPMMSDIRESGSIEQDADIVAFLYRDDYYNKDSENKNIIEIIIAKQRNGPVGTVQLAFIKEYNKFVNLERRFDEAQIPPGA
T1 sequence 2: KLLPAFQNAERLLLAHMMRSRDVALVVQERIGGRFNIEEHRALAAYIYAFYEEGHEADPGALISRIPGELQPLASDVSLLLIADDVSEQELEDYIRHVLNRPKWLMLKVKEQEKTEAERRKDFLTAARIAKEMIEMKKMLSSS

[4] = biological target: helicase-binding domain of primase DnaG from Bacillus stearothermophilus (Bacillus stearothermophilus) (UniProt Q9X4D0); assay: ITC; reverse titration: pre-formed DnaB6/dT16 complex (200 μmol/L, needle) titrated into DnaG(HBD) (10 μmol/L, cell); 25°C; 25 mmol/L Tris pH 8.0, 100 mmol/L NaCl; one-set-of-sites model
[5] = biological target: T1, DnaB helicase;DnaG(HBD); assay: gel filtration with SDS-PAGE and native PAGE; ternary complex, single peak; ITC Kd of Table 1 (about 1 uM) is HBD binding to preformed DnaB6/dT16, a protein-protein contact, so not listed as a value; EMSA: 25 mM Tris pH 8.0, 100 mM NaCl, 10% glycerol, 1 mM DTT, 5 mM MgCl2, 2 mM ATP, 4 C, native PAGE (6% in Methods, 8% in legend); ITC: 25 mM Tris pH 8.0, 100; conditions: protein: recombinant;recombinant; tags: GST tag removed with PreScission (pGEX-6p-1);GST tag removed with PreScission (pGEX-6p-1); chain copies: 6;1; label: none stated; single strand
[6] = biological target: T2, DnaB helicase (Bacillus stearothermophilus, UniProt Q9X4C9 1-454); assay: gel filtration with SDS-PAGE and SYBR Green II staining; binary complex; EMSA: 25 mM Tris pH 8.0, 100 mM NaCl, 10% glycerol, 1 mM DTT, 5 mM MgCl2, 2 mM ATP, 4 C, native PAGE (6% in Methods, 8% in legend); ITC: 25 mM Tris pH 8.0, 100; conditions: protein: recombinant; tags: GST tag removed with PreScission (pGEX-6p-1); chain copies: 6; label: none stated; single strand
T2 sequence: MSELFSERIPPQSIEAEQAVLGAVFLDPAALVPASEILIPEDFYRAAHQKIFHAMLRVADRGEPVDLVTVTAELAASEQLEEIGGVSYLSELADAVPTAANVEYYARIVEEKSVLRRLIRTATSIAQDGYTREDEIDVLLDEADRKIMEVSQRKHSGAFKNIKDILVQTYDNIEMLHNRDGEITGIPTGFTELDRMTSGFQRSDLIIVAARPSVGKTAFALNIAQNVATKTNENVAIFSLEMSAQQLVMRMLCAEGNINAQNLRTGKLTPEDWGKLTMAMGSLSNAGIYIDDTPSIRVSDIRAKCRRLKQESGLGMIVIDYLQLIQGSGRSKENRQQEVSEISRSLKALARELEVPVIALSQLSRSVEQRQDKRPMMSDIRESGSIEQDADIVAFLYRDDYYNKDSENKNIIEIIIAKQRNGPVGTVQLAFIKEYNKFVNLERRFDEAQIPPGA

Q: With “helicase-binding domain of primase DnaG from Bacillus stearothermophilus (from UniProt Q9X4D0 1-597) (domain or fragment)” as the molecule, how does the stoichiometry N (DnaG(HBD) per DnaB hexamer) [1] read?
A: 3

Q: And the Kd [2]?
A: 0.96 µM and 1.13 µM and 1.07 µM

Q: What about the dH [2] of the same molecule?
A: -22.8 kcal/mol and -22.7 kcal/mol and -22.2 kcal/mol

Q: What about the stoichiometry N [2] of the same molecule?
A: 1.09 and 1.02 and 0.981

Q: Does TTTTTTTTTTTTTTTT (ssDNA) [dT16 (6-FAM)] bind [3]?
A: binds

B1: helicase DnaB hexamer from Bacillus stearothermophilus (enzyme)
chain: MSELFSERIPPQSIEAEQAVLGAVFLDPAALVPASEILIPEDFYRAAHQKIFHAMLRVADRGEPVDLVTVTAELAASEQLEEIGGVSYLSELADAVPTAANVEYYARIVEEKSVLRRLIRTATSIAQDGYTREDEIDVLLDEADRKIMEVSQRKHSGAFKNIKDILVQTYDNIEMLHNRDGEITGIPTGFTELDRMTSGFQRSDLIIVAARPSVGKTAFALNIAQNVATKTNENVAIFSLEMSAQQLVMRMLCAEGNINAQNLRTGKLTPEDWGKLTMAMGSLSNAGIYIDDTPSIRVSDIRAKCRRLKQESGLGMIVIDYLQLIQGSGRSKENRQQEVSEISRSLKALARELEVPVIALSQLSRSVEQRQDKRPMMSDIRESGSIEQDADIVAFLYRDDYYNKDSENKNIIEIIIAKQRNGPVGTVQLAFIKEYNKFVNLERRFDEAQIPPGA
Q: With B1 as the molecule, how does the Kd [4] read?
A: 1.01 µM and 1.11 µM and 0.89 µM

Q: And the dH [4]?
A: -11.2 kcal/mol and -9.18 kcal/mol and -9.75 kcal/mol

Q: What about the stoichiometry N [4] of the same molecule?
A: 0.987 and 1.08 and 1.05

Q: Which results are given for TTTTTTTTTTTTTTTT (ssDNA) [dT16]?
A: binding result [5]: binds; binding result [6]: binds
